Experimental data taken from the nanobody polyreactivity screen of Harvey et al. (2022).

Assay: yeast display, Sf9 membrane polyspecificity reagent, FACS + sequencing; frameworks hold sequencing errors
Method in brief: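 Using colony PCR, genes from sorted yeast display clones were amplified, then sequenced on MiSeq at 2 × 250 and filtered by CDR length. The clones had been stained with 10% biotinylated, detergent-solubilized Sf9 membrane reagent for 1 hour at 4 °C and sorted by FACS into low and high (top ~1%) gates on anti-HA and streptavidin fluorescence. Polyreactivity labels come from the gate of origin.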

## QVQLVESGGGLVQAGGSLRLSCAASGFTFNRNAMGWYRQAPGKERELVAAISWSGGSTYYADSVKGRFTISRDNAKYTVYLQMHSLKPEDTAVYYCAQGYRRVYGPFYYWGQGTQVTVSS
  polyreactivity (PSR sort gate): low polyreactivity

## QVQLVESGGGLVQAGGSLRLSCAASGFTFNRYAMGWYRQAPGQERELVAAISRSGGSTSYADSVKGRFTISRDNAKKTVYLPMHSLKPEDTAVYYCAADRVWYLYYDYNYWGQGTQVTVSS
  polyreactivity (PSR sort gate): high polyreactivity

## QVQLVESGGGLVQAGGSLRLSCAASGFTFNSYAMGWYRQAPGKERELVAAITWRGGSTYADSVKGRFTISRDNAKNTVYLQMNSLKPEDTAVYYCNAVSDVKRYDYWGQGTQVTVSS
  polyreactivity (PSR sort gate): high polyreactivity

## QVQLVESGGGLVQAGGSLRLSCAASGFTFNTNAMGWYRQAPGKETELVAAITWTGGRTYYADSVKGRFTISRDNAKNTVHLQMNSLKPEDTAVYYCAAESFGYSIDITDHEYWGQGTQVTVSS
  polyreactivity (PSR sort gate): high polyreactivity

## QVQLVESGGGLVQAGGSLRLSCAASGFTFNYNARGWYSQAPGNDRELVAAIRRSGGSTYYADSGKGRFTISRDNAKNTVYLQMNSLKPEDTAVYYCAARQSFLYGYWGQGTQVTVSS
  polyreactivity (PSR sort gate): high polyreactivity

## QVQLVESGGGLVQAGGSLRLSCAASGFTFNYYAMGWYRQAPGKEREFVAAISRSAGSTYYADSVKGRFTISRDNAKNTVYLQMNSLKPEDTAVYYCAADPRSKGFYYGYDYWGQGTQVTVSS
  polyreactivity (PSR sort gate): high polyreactivity

## QVQLVESGGGLVQAGGSLRLSCAASGFTFNYYAMGWYRQAPGKERELVAAISGRGGSTYYADSVKGRFTISRDNAKNTVYLQMNSLKPEDTAVYYCAADYWYDYYSTEYDYWGQGTQVTVSS
  polyreactivity (PSR sort gate): low polyreactivity

## QVQLVESGGGLVQAGGSLRLSCAASGFTFPANDMGWYIQAPGKERELVATITWSGGNTYYADSVKGRFTISRDNAKNTVYLQMNSLKPEDTAVYYCAKDYDPYHEQQSSEHDDYWGQGTQVTVSS
  polyreactivity (PSR sort gate): low polyreactivity

## QVQLVESGGGLVQAGGSLRLSCAASGFTFPDNAMGWYRQAPGKERELVAAITTSGGRTYYADSVKGRFTISRDNAKNTVYLQMNSLKPEDTAVYYCARPSRRTGREYGYWGQGTQVTVSS
  polyreactivity (PSR sort gate): high polyreactivity

## QVQLVESGGGLVQAGGSLRLSCAASGFTFPDYAMGWYRQAPGKERELVAAISSDCSTYYADSVKGRFTISRDNAKNTVYLQMNSLKPEDTAVYYCAAYVVWLYGYDYWGQGTQVTVSS
  polyreactivity (PSR sort gate): low polyreactivity

## QVQLVESGGGLVQAGGSLRLSCAASGFTFPGNAMGWYRQAPGKEREFVAAITRSSGSTSYADSVKGRFTISRDNAKNTVYLQMNSLKPDDTAVYRDYWGLGTQVTVSS
  polyreactivity (PSR sort gate): low polyreactivity

## QVQLVESGGGLVQAGGSLRLSCAASGFTFPLNAMGWYRQAPGKERELVAAITNGGTTYYADSVKGRFTISRDNAKNTVYLQMNSLKPEDTAVYYCNAQATPYEGRYDESEYDYWGQGTQVTVSS
  polyreactivity (PSR sort gate): low polyreactivity

## QVQLVESGGGLVQAGGSLRLSCAASGFTFPLNAMGWYRQAPWKERELVAAITNGGTTYYADSVKGRFTISRDNAKNTVYLQMNSLKPEDTGVYYCAAYTYRYGSFKYGYWGQGTQVTVSS
  polyreactivity (PSR sort gate): low polyreactivity

## QVQLVESGGGLVQAGGSLRLSCAASGFTFPNNAMGWYRQAPGKERELVAAITWSGGSTYADSVKGRFTISRDNAKNTVYLQMNSLKPEDTAVYYCNTRGTYLSKTLPSAYDYWGQGTQVTVSS
  polyreactivity (PSR sort gate): low polyreactivity

## QVQLVESGGGLVQAGGSLRLSCAASGFTFPNYAMGWYRQAPGKERELVAAITSGGGRTNYADSVKGRFTISRDNAKNTVYLQMNSLKPEDTAVYYCNAEKTYLGSRYRPYNYWGQGTQVTVSS
  polyreactivity (PSR sort gate): low polyreactivity

## QVQLVESGGGLVQAGGSLRLSCAASGFTFPNYAMGWYRQAPGKERELVAAITSGGGRTNYADSVKGRFTISRDNAKNTVYLQMNSLKPVDTAVYYCAKTRVRGSEFGYWGQGTQVTVSS
  polyreactivity (PSR sort gate): low polyreactivity

## QVQLVESGGGLVQAGGSLRLSCAASGFTFPRNVMGWYRQAPGKERELVATISSGGRTNYADSVKGRFTISRDNAKNTVYLQMNSLKPEDTAVYYCAARVYTYYYDLHKRYYWGQGTQVTVSS
  polyreactivity (PSR sort gate): high polyreactivity
